Laboratory results reported in patent US20190315845A1 (ANNEXON, published 2019).
Residue numbers refer to the chain shown, from its start. Names may count otherwise. Like-named read-outs stand apart in the source and are kept apart here.

Key:
[1] = biological target: T1, human C1q (human, UniProt P02745 23-245; P02746 28-253; P02747 29-245); assay: competition ELISA on plate-bound human C1q against biotinylated mouse M1 antibody (0.02 µg/ml); bound biotin-M1 read as OD450
T1 construct: Purified human C1q protein (plate-coated in ELISA, ligand or analyte in SPR, in human serum in CH50); also called hC1q; complement factor C1q
Description: (§1) FIG. 4A, FIG. 4B, FIG. 4C, and FIG. 4D depicts competition ELISA assays for human C1q. A dilution series of purified humanized anti-C1q antibodies were competed against a fixed concentration of biotinylated monoclonal antibody M1 for binding to human C1q. Bound biotinylated M1 antibody was detected using streptavidin-peroxidase conjugate and TMB substrate. FIG. 4A depicts the results with the humanized antibodies VH1/Vκ1, VH1/Vκ2, and VH1/Vκ3. FIG. 4B depicts the results with the humanized antibodies VH1/Vκ4, VH2/Vκ1, VH2/Vκ2, VH2/Vκ3, and VH2/Vκ4. FIG. 4C depicts the results with the humanized antibodies VH3/Vκ1, VH3/Vκ2, VH3/Vκ3, and VH3/Vκ4. FIG. 4D depicts the results with the humanized antibodies VH4/Vκ1, VH4/Vκ2, […], and VH4/Vκ4.
(§2) The binding of humanized M1 variants to human C1q was analyzed by competition ELISA. A three-fold dilution series of test antibody (5 μg/ml to 0.002 μg/ml) was premixed with a constant concentration of biotinylated mouse M1 antibody (0.02 μg/ml, final concentration) before incubating for 1 hour at 37° C. with shaking on plates pre-coated with human C1q at 1.0 μg/ml. The binding of mouse M1 antibody was detected with streptavidin-peroxidase conjugate (Sigma-Aldrich cat. no. 55512) and TMB (3,3′,5,5′-tetramethylbenzidine) substrate (Thermo Scientific cat. no. 34029). The reaction was stopped with 1M HCl, absorbance read at 450 nm on a Dynex Technologies MRX TC II plate reader and the binding curves plotted.

[2] = biological target: T1, human C1q; assay: competition ELISA, plate-coated human C1q; competitor biotinylated mouse M1 (0.02 µg/ml); IC50 normalised to chimeric M1
Description: as §2
The binding curves were used to calculate IC₅₀ values (concentration of test antibody that inhibits labelled competitor binding by 50%) for each antibody normalized to the IC₅₀ of chimeric M1 and antibody yields from NS0 transfectants were also compared (Table 1).

[3] = biological target: T1, human C1q; assay: cell-based or functional assay
[4] = biological target: rat C1q (rat, UniProt P31720 23-245; P31721 26-253; P31722 29-245); assay: cell-based or functional assay
[5] = biological target: T2, mouse C1q (mouse, UniProt P98086 23-245; P14106 26-253; Q02105 30-246); assay: competition ELISA, plate-coated mouse C1q; competitor biotinylated chimeric M1 (0.03 µg/ml); IC50 normalised to chimeric M1
T2 construct: Purified mouse C1q protein; also called mC1q
Description: (§3) The binding of humanized M1 variants to mouse C1q was analyzed by competition ELISA on four selected antibodies, VH1/Vκ1, VH3/Vκ1, VH3/Vκ4 and VH4/Vκ3. An irrelevant IgG4 (S241P L248E) antibody was also included as a binding control. A three-fold dilution series of test antibody (100 μg/ml to 0.046 μg/ml) was premixed with a constant concentration of biotinylated chimeric M1 antibody (0.03 μg/ml, final concentration) before incubating for 1 hour at 37° C. with shaking on plates pre-coated with mouse C1q at 5.0 μg/ml. The binding of chimeric M1 antibody was detected with streptavidin-peroxidase conjugate (Sigma-Aldrich cat. no. S5512) and TMB substrate (Thermo Scientific cat. no. 34029). The reaction was stopped with 1M HCl, absorbance read at 450 nm on a Dynex Technologies MRX TC II plate reader and the binding curves plotted.
(§4) The binding curves were used to calculate IC₅₀ values for each antibody normalized to the IC₅₀ of chimeric M1 (Table 2).

[6] = biological target: T2, mouse C1q; assay: competition ELISA on plate-bound mouse C1q against biotinylated chimeric M1 antibody (0.03 µg/ml); bound biotin-chimeric M1 read as OD450
Description: as §3, §4

[7] = biological target: T1, human C1q; assay: competition ELISA on plate-bound human C1q against biotinylated mouse M1 antibody (0.02 µg/ml); bound biotin-M1 read as OD450; remark: listed apart in the source
Description: as §1, §2

[8] = biological target: T1, human C1q; assay: as above; remark: listed apart in the source
Description: as §1, §2

[9] = biological target: T1, human C1q; assay: as above; remark: listed apart in the source
Description: as §1, §2

[10] = biological target: T1, human C1q; assay: SPR Biacore T200, heterogeneous ligand model, ka1; hC1q immobilised (ligand), IgG analyte
[11] = biological target: T1, human C1q; assay: SPR Biacore T200, heterogeneous ligand model, kd1; hC1q immobilised (ligand), IgG analyte
[12] = biological target: T1, human C1q; assay: SPR Biacore T200, 1:1 model; IgG immobilised (ligand), hC1q analyte; analysis 1
[13] = biological target: T1, human C1q; assay: SPR Biacore T200, 1:1 model; IgG immobilised (ligand), hC1q analyte; analysis 2
[14] = biological target: T1, human C1q; assay: SPR Biacore T200, heterogeneous ligand model, kd2; hC1q immobilised (ligand), IgG analyte
[15] = biological target: T1, human C1q; assay: SPR Biacore T200, 1:1 model, single cycle kinetics; hC1q immobilised (ligand), IgG analyte
[16] = biological target: T1, human C1q; assay: SPR Biacore T200, 1:1 model; IgG immobilised (ligand), hC1q analyte; mean of 2 analyses
[17] = biological target: T1, human C1q; assay: SPR Biacore T200, heterogeneous ligand model, KD2; hC1q immobilised (ligand), IgG analyte
[18] = biological target: T1, human C1q; assay: SPR Biacore T200, heterogeneous ligand model, ka2; hC1q immobilised (ligand), IgG analyte
[19] = biological target: T1, human C1q; assay: SPR Biacore T200, heterogeneous ligand model, KD1; hC1q immobilised (ligand), IgG analyte

T2 sequence (P98086 23-245 limits assumed, chain 1 of 3): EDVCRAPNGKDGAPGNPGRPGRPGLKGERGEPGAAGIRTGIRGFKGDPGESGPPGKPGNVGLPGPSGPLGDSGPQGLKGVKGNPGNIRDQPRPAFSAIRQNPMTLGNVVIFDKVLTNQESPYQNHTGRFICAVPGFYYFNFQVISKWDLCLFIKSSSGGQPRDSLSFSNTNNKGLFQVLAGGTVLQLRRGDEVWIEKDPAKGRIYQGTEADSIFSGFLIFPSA
T2 sequence (P14106 26-253 limits assumed, chain 2 of 3): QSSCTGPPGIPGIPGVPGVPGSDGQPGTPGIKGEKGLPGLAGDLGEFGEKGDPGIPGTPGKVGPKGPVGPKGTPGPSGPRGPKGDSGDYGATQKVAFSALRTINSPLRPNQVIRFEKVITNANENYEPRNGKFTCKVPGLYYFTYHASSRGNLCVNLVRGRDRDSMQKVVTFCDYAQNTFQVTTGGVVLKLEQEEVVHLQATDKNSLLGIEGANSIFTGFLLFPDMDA
T2 sequence (Q02105 30-246 limits assumed, chain 3 of 3): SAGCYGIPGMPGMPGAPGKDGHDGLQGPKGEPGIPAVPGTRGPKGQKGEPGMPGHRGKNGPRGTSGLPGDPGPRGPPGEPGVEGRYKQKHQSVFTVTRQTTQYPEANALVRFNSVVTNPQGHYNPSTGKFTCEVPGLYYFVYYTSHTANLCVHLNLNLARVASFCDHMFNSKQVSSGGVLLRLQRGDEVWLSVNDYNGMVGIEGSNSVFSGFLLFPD
rat C1q, sequence (P31720 23-245 limits assumed, chain 1 of 3): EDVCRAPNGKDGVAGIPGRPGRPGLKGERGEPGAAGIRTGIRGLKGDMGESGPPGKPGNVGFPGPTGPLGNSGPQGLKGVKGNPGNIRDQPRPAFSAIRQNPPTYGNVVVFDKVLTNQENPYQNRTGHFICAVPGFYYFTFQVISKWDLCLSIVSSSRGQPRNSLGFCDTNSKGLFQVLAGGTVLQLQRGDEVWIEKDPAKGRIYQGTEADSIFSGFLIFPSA
rat C1q, sequence (P31721 26-253 limits assumed, chain 2 of 3): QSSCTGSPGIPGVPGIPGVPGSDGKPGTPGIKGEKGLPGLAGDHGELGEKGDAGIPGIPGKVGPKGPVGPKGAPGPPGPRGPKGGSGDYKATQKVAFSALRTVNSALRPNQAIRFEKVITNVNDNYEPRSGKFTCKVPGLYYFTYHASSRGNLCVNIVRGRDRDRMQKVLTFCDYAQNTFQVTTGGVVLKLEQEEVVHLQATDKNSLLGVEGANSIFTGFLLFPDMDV
rat C1q, sequence (P31722 29-245 limits assumed, chain 3 of 3): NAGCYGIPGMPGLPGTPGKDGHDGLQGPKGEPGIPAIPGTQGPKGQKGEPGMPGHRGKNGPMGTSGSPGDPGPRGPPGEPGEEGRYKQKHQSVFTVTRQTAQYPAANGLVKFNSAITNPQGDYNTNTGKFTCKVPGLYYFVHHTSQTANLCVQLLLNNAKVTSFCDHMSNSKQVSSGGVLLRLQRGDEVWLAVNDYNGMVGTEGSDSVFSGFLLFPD
T1 sequence (P02745 23-245 limits assumed, chain 1 of 3): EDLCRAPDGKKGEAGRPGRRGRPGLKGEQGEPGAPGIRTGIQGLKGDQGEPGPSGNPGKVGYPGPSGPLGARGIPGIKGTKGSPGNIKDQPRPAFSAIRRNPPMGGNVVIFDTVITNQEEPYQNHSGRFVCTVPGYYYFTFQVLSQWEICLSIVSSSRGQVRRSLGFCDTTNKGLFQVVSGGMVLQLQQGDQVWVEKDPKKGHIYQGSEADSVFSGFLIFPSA
T1 sequence (P02746 28-253 limits assumed, chain 2 of 3): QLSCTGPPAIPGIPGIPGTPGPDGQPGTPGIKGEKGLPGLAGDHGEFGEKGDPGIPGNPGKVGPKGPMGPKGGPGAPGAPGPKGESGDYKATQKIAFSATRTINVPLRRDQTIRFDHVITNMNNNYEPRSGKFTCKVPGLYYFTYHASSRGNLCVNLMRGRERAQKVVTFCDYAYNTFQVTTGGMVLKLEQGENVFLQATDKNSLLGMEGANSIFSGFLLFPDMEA
T1 sequence (P02747 29-245 limits assumed, chain 3 of 3): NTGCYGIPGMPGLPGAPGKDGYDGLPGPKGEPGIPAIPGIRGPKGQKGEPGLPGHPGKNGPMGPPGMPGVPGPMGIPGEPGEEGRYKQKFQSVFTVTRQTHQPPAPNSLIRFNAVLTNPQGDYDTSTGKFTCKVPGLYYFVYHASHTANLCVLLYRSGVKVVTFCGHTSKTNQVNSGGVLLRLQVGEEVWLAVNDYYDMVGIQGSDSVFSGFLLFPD

B1: humanized anti-C1q antibody VH2/Vκ2 (antibody, human IgG4)
heavy: not shown
light: DVQITQSPSSLSASLGERATINCRASKSINKYLAWYQQKPGKANKLLIYSGSTLQSGIPARFSGSGSGTDFTLTISSLEPEDFAMYYCQQHNEYPLTFGQGTKLEIK
notes: Full-length human IgG4 (S241P L248E) / human kappa, expressed in NS0, Protein A purified; not shown: human kappa light chain constant region
- IC50 (read off the curve) [1]: ~0.3 µg/mL
- Relative IC50 [2]: 1.12 ratio to chimeric M1

B2: humanized anti-C1q antibody VH4/Vκ3 (antibody, human IgG4)
heavy: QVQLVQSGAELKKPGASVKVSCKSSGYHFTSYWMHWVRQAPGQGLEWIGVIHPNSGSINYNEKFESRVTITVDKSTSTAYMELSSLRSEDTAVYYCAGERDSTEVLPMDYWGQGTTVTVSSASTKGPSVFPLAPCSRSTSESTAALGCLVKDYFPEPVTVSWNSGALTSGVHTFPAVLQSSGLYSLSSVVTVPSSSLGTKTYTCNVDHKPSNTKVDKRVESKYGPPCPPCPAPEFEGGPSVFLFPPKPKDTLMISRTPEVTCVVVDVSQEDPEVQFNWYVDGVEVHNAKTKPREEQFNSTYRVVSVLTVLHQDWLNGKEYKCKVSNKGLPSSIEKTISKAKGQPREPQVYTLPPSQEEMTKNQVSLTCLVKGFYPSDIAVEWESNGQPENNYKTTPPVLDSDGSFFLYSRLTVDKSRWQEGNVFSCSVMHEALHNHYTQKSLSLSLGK
light: B1 light with N44P
notes: Full-length human IgG4 (S241P L248E) / human kappa, expressed in NS0, Protein A purified; also called 1D3; not shown: human kappa light chain constant region
- amount of antibody required to inhibit 50% of human CH50 hemolysis [3]: ~60 ng
- amount of antibody required to inhibit approximately 50% to approximately 80% of rat CH50 hemolysis [4]: ~60 ng
- Relative IC50 [5]: 1.84 ratio to chimeric M1
- IC50 (read off the curve) [6]: ~6 µg/mL
- IC50 (read off the curve) [7]: ~0.2 µg/mL
- Relative IC50 [2]: 0.77 ratio to chimeric M1

B3: humanized anti-C1q antibody VH3/Vκ4 (antibody, human IgG4)
heavy: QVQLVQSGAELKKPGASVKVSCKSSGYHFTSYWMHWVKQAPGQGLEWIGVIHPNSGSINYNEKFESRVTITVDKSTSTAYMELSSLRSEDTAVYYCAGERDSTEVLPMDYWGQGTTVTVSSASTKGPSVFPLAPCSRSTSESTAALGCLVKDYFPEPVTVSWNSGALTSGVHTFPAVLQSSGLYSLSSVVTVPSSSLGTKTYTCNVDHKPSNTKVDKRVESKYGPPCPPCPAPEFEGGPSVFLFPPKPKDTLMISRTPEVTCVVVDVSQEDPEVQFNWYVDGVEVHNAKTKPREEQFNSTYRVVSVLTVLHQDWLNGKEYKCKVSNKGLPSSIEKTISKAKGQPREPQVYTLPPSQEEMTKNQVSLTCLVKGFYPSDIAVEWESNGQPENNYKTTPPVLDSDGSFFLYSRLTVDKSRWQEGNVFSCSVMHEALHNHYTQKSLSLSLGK
light: B1 light with V2I, I4L, N44P
notes: Full-length human IgG4 (S241P L248E) / human kappa, expressed in NS0, Protein A purified; also called 3F1; not shown: human kappa light chain constant region
- amount of antibody required to inhibit approximately 50% to approximately 80% of rat CH50 hemolysis [4]: ~60 ng
- Relative IC50 [5]: 1.91 ratio to chimeric M1
- IC50 (read off the curve) [8]: ~0.3 µg/mL
- IC50 (read off the curve) [6]: ~6 µg/mL
- Relative IC50 [2]: 0.83 ratio to chimeric M1

B4: humanized anti-C1q antibody VH3/Vκ1 (antibody, human IgG4)
heavy: not shown
light: B1 light with S10Y, S12A, A43T
notes: as for B1
- IC50 (read off the curve) [8]: ~0.2 µg/mL
- Relative IC50 [2]: 0.65 ratio to chimeric M1

B5: humanized anti-C1q antibody VH1/Vκ2 (antibody, human IgG4)
heavy: not shown
light: B1 light
notes: as for B1
- IC50 (read off the curve) [9]: ~0.3 µg/mL
- Relative IC50 [2]: 0.84 ratio to chimeric M1

B6: humanized anti-C1q antibody VH4/Vκ4 (antibody, human IgG4)
heavy: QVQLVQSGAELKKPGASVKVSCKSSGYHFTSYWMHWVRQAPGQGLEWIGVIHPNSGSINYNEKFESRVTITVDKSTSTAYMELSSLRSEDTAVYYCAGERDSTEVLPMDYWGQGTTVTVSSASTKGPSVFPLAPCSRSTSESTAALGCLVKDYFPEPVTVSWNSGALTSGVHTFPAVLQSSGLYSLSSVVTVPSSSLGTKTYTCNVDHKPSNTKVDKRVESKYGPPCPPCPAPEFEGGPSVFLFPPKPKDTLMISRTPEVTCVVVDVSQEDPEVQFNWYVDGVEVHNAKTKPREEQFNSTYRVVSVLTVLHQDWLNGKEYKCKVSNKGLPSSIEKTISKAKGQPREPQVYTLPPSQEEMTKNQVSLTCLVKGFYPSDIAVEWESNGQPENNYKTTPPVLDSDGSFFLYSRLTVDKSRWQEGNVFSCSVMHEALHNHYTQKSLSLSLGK
light: B1 light with V2I, I4L, N44P
notes: as for B1
- IC50 (read off the curve) [7]: ~0.2 µg/mL
- Relative IC50 [2]: 0.92 ratio to chimeric M1

B7: humanized anti-C1q antibody VH1/Vκ1 (antibody, human IgG4)
heavy: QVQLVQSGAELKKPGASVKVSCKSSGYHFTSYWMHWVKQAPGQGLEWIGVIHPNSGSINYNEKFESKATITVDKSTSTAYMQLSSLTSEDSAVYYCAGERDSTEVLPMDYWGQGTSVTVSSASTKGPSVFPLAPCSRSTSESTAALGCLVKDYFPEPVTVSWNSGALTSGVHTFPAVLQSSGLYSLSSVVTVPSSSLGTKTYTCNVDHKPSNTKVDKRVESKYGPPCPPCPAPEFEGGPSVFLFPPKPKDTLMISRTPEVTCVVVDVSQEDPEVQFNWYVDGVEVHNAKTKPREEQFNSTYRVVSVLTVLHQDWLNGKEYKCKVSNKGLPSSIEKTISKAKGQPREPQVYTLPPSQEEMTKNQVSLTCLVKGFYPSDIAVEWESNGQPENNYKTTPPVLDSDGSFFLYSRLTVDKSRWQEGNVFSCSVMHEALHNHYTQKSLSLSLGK
light: B1 light with S10Y, S12A, A43T
notes: Full-length human IgG4 (S241P L248E) / human kappa, expressed in NS0, Protein A purified; also called 2B12; not shown: human kappa light chain constant region
- amount of antibody required to inhibit 50% of human CH50 hemolysis [3]: ~60 ng
- amount of antibody required to inhibit approximately 50% to approximately 80% of rat CH50 hemolysis [4]: ~60 ng
- Relative IC50 [5]: 1.62 ratio to chimeric M1
- IC50 (read off the curve) [9]: ~0.3 µg/mL
- IC50 (read off the curve) [6]: ~5 µg/mL
- Relative IC50 [2]: 0.9 ratio to chimeric M1

B8: humanized anti-C1q antibody VH1/Vκ4 (antibody, human IgG4)
heavy: not shown
light: B1 light with V2I, I4L, N44P
notes: as for B1
- IC50 (read off the curve) [1]: ~0.2 µg/mL
- Relative IC50 [2]: 0.8 ratio to chimeric M1

B9: humanized anti-C1q antibody VH3/Vκ2 (antibody, human IgG4)
heavy: not shown
light: B1 light
notes: as for B1
- IC50 (read off the curve) [8]: ~0.3 µg/mL
- Relative IC50 [2]: 0.82 ratio to chimeric M1

B10: humanized anti-C1q antibody VH4/Vκ2 (antibody, human IgG4)
heavy: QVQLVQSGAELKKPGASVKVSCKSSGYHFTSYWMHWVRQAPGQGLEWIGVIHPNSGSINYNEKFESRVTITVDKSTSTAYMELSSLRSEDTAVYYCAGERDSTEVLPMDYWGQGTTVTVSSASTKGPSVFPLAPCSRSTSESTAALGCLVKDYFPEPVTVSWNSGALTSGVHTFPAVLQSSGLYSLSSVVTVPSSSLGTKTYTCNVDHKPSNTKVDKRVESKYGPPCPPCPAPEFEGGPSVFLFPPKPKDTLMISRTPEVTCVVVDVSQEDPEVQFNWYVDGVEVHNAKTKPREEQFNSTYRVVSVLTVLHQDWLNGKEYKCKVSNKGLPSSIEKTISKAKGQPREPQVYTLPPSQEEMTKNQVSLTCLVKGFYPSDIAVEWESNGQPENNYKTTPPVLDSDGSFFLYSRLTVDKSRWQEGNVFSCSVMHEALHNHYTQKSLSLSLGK
light: B1 light
notes: as for B1
- IC50 (read off the curve) [7]: ~0.2 µg/mL
- Relative IC50 [2]: 0.84 ratio to chimeric M1

B11: humanized anti-C1q antibody VH2/Vκ4 (antibody, human IgG4)
heavy: not shown
light: B1 light with V2I, I4L, N44P
notes: as for B1
- IC50 (read off the curve) [1]: ~0.2 µg/mL
- Relative IC50 [2]: 0.72 ratio to chimeric M1

B12: humanized anti-C1q antibody VH3/Vκ3 (full-length IgG) (antibody)
heavy: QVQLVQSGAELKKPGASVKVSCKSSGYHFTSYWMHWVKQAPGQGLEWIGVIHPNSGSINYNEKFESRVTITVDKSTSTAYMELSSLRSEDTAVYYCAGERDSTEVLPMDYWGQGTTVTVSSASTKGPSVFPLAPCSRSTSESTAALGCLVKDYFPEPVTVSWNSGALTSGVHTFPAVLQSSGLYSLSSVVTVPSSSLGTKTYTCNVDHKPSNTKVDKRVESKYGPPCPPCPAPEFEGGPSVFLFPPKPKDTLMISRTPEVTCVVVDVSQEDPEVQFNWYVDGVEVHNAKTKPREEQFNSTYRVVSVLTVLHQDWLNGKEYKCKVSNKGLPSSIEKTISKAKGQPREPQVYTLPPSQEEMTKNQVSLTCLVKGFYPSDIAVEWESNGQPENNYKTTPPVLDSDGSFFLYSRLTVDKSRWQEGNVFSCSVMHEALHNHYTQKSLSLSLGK
light: B1 light with N44P
notes: Full-length human IgG4 (S241P L248E) / human kappa, expressed in NS0; also called IgG VH3/Vκ3; IgG-VH3/Vκ3; not shown: human kappa light chain constant region
- amount of antibody required to inhibit 50% of human CH50 hemolysis [3]: ~60 ng
- amount of antibody required to inhibit approximately 50% to approximately 80% of rat CH50 hemolysis [4]: ~60 ng
- kon [10]: 200000 M⁻¹ s⁻¹
- Relative IC50 [5]: 1.5 ratio to chimeric M1
- IC50 (read off the curve) [8]: ~0.2 µg/mL
- IC50 (read off the curve) [6]: ~5 µg/mL
- koff [11]: 4.6e-06 s⁻¹
- Kd [12]: 6.7 pM
- koff [12]: 6.4e-06 s⁻¹
- kon [12]: 960000 M⁻¹ s⁻¹
- Kd [13]: 4.9 pM
- koff [13]: 5.1e-06 s⁻¹
- kon [13]: 1.1e+06 M⁻¹ s⁻¹
- koff [14]: 1.1e-07 s⁻¹
- Kd [15]: 7.9 pM
- koff [15]: 3.1e-07 s⁻¹
- kon [15]: 39000 M⁻¹ s⁻¹
- Kd [16]: 5.8 pM
- koff [16]: 5.8e-06 s⁻¹
- kon [16]: 1e+06 M⁻¹ s⁻¹
- Kd [17]: 7300 pM
- kon [18]: 16000 M⁻¹ s⁻¹
- Relative IC50 [2]: 0.63 ratio to chimeric M1
- Kd [19]: 22700 pM

B13: humanized anti-C1q antibody VH1/Vκ3 (antibody, human IgG4)
heavy: not shown
light: B1 light with N44P
notes: as for B1
- IC50 (read off the curve) [9]: ~0.3 µg/mL
- Relative IC50 [2]: 0.91 ratio to chimeric M1

B14: humanized anti-C1q antibody VH2/Vκ3 (antibody, human IgG4)
heavy: not shown
light: B1 light with N44P
notes: as for B1
- IC50 (read off the curve) [1]: ~0.2 µg/mL
- Relative IC50 [2]: 0.75 ratio to chimeric M1

B15: humanized anti-C1q antibody VH2/Vκ1 (antibody, human IgG4)
heavy: not shown
light: B1 light with S10Y, S12A, A43T
notes: as for B1
- IC50 (read off the curve) [1]: ~0.3 µg/mL
- Relative IC50 [2]: 1.15 ratio to chimeric M1

B16: humanized anti-C1q antibody VH4/Vκ1 (antibody, human IgG4)
heavy: not shown
light: B1 light with S10Y, S12A, A43T
notes: as for B1
- IC50 (read off the curve) [7]: ~0.3 µg/mL
- Relative IC50 [2]: 1.03 ratio to chimeric M1
